Source: IntAct's records for PubMed 22230954

B1: Histone deacetylase 3 (Homo sapiens), O15379 (parent)
chain: MAKTVAYFYDPDVGNFHYGAGHPMKPHRLALTHSLVLHYGLYKKMIVFKPYQASQHDMCRFHSEDYIDFLQRVSPTNMQGFTKSLNAFNVGDDCPVFPGLFEFCSRYTGASLQGATQLNNKICDIAINWAGGLHHAKKFEASGFCYVNDIVIGILELLKYHPRVLYIDIDIHHGDGVQEAFYLTDRVMTVSFHKYGNYFFPGTGDMYEVGAESGRYYCLNVPLRDGIDDQSYKHLFQPVINQVVDFYQPTCIVLQCGADSLGCDRLGCFNLSIRGHGECVEYVKSFNIPLLVLGGGGYTVRNVARCWTYETSLLVEEAISEELPYSEYFEYFAPDFTLHPDVSTRIENQNSRQYLDQIRQTIFENLKMLNHAPSVQIHDVPADLLTYDRTDEADAEERGPEENYSRPEAPNEFYDGDHDNDKESDVEI

Variants of: B1
Conditions: with ncor2_human NCOR2, Q9Y618
Sequence of ncor2_human NCOR2, Q9Y618 (Q9Y618 whole entry): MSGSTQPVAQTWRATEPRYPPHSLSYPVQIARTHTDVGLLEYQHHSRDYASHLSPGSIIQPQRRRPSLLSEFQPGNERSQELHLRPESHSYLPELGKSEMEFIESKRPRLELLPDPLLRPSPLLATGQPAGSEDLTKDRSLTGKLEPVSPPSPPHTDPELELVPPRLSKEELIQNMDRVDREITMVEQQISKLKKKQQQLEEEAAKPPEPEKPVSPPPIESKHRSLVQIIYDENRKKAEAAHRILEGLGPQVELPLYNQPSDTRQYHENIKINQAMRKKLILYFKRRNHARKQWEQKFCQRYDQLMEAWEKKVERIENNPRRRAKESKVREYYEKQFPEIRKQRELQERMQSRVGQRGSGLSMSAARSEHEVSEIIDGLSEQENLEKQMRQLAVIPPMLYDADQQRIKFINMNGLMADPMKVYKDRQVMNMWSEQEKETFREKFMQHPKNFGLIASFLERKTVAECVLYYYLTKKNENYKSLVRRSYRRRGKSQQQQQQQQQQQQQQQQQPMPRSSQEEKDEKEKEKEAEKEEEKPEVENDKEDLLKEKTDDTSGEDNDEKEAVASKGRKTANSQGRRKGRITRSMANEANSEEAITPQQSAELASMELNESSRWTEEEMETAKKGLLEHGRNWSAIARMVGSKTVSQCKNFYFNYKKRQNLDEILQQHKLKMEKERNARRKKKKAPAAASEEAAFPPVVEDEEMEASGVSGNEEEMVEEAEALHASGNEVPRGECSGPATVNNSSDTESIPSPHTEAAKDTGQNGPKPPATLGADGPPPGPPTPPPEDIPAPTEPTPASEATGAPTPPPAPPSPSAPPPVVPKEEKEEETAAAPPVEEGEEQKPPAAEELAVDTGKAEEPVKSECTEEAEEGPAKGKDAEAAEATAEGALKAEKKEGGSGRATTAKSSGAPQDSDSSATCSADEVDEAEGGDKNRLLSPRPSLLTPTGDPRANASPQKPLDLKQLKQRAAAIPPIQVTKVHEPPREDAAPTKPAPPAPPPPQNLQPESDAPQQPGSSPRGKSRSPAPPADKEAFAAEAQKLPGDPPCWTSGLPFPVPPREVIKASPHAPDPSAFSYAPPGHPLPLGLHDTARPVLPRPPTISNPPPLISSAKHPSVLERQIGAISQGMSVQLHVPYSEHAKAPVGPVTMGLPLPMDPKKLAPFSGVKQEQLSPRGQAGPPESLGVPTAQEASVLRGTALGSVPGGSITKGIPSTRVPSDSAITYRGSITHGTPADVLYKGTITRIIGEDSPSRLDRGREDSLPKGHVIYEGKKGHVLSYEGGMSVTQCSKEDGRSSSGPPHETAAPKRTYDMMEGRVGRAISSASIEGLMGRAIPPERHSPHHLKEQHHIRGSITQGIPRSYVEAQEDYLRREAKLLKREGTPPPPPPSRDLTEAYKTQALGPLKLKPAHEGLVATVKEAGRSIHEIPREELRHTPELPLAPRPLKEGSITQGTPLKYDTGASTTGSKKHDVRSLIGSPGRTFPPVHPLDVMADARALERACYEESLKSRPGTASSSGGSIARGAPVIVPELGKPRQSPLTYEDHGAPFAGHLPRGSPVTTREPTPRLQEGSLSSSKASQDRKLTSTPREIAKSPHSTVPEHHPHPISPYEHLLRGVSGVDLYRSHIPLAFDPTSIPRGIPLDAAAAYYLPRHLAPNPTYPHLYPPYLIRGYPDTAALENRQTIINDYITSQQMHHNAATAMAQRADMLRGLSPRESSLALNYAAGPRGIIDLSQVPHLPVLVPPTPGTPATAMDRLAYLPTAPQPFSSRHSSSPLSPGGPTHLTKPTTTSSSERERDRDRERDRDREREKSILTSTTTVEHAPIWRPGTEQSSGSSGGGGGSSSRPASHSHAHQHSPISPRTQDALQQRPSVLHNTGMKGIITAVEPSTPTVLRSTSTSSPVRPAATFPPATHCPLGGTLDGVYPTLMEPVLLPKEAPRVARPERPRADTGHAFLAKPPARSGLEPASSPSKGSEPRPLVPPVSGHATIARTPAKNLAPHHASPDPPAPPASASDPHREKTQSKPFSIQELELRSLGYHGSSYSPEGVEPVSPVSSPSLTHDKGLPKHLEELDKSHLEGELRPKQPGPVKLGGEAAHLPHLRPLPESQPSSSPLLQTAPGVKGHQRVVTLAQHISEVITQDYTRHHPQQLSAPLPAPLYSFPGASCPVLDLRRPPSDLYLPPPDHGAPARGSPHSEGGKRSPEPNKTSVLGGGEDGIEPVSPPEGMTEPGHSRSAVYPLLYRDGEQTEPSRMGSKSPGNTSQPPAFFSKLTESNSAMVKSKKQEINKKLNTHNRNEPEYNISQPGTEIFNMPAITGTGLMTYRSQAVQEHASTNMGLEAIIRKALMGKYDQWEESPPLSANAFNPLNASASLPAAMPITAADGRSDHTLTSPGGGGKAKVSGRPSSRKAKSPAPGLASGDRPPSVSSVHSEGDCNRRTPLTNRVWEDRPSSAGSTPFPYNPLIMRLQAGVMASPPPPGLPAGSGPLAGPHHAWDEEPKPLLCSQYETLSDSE

| Variant | effect of a mutation on the interaction |
| --- | --- |
| MAKTVAYFYDPDVGNFHYGAGHPMKPHRLALTHSLVLHYGLYKKMIVFKPYQASQHDMCRFHSEDYIDFLQRVSPTNMQGFTKSLNAFNVGDDCPVFPGLFEFCSRYTGASLQGATQLNNKICDIAINWAGGLHHAKKFEASGFCYVNDIVIGILELLKYHPRVLYIDIDIHHGDGVQEAFYLTDRVMTVSFHKYGNYFFPGTGDMYEVGAESGRYYCLNVPLRDGIDDQSYKHLFQPVINQVVDFYQPTCIVLQCGADSLGCDPLGCFNLSIRGHGECVEYVKSFNIPLLVLGGGGYTVRNVARCWTYETSLLVEEAISEELPYSEYFEYFAPDFTLHPDVSTRIENQNSRQYLDQIRQTIFENLKMLNHAPSVQIHDVPADLLTYDRTDEADAEERGPEENYSRPEAPNEFYDGDHDNDKESDVEI [R265P] | disrupting interaction |
| MAKTVAYFYDPDVGNFCYGAAHPMIPHRLALTHSLVLHYGLYKKMIVFKPYQASQHDMCRFHSEDYIDFLQRVSPTNMQGFTKSLNAFNVGDDCPVFPGLFEFCSRYTGASLQGATQLNNKICDIAINWAGGLHHAKKFEASGFCYVNDIVIGILELLKYHPRVLYIDIDIHHGDGVQEAFYLTDRVMTVSFHKYGNYFFPGTGDMYEVGAESGRYYCLNVPLRDGIDDQSYKHLFQPVINQVVDFYQPTCIVLQCGADSLGCDPMGCFNLSIRGHGECVEYVKSFNIPLLVLGGGGYTVRNVARCWTYETSLLVEEAISEELPYSEYFEYFAPDFTLHPDVSTRIENQNSRQYLDQIRQTIFENLKMLNHAPSVQIHDVPADLLTYDRTDEADAEERGPEENYSRPEAPNEFYDGDHDNDKESDVEI [H17C;G21A;K25I;R265P;L266M] | disrupting interaction |
| MAKTVAYFYDPDVGNFHYGAGHPMKPHRLALTHSLVLHYGLYKKMIVFKPYQASQHDMCRFHSEDYIDFLQRVSPTNMQGFTKSLNAFNVGDDCPVFPGLFEFCSRYTGASLQGATQLNNKICDIAINWAGGLHHAKKFEASGFCYVNDIVIGILELLKYHPRVLYIDIDIHHGDGVQEAFYLTDRVMTVSFHKYGNYFFPGTGDMYEVGAESGRYYCLNVPLRDGIDDQSYKHLFQPVINQVVDFYQPTCIVLQCGADSLGCDPMGCFNLSIRGHGECVEYVKSFNIPLLVLGGGGYTVRNVARCWTYETSLLVEEAISEELPYSEYFEYFAPDFTLHPDVSTRIENQNSRQYLDQIRQTIFENLKMLNHAPSVQIHDVPADLLTYDRTDEADAEERGPEENYSRPEAPNEFYDGDHDNDKESDVEI [R265P;L266M] | disrupting interaction |
| MAKTVAYFYDPDVGNFCYGAAHPMIPHRLALTHSLVLHYGLYKKMIVFKPYQASQHDMCRFHSEDYIDFLQRVSPTNMQGFTKSLNAFNVGDDCPVFPGLFEFCSRYTGASLQGATQLNNKICDIAINWAGGLHHAKKFEASGFCYVNDIVIGILELLKYHPRVLYIDIDIHHGDGVQEAFYLTDRVMTVSFHKYGNYFFPGTGDMYEVGAESGRYYCLNVPLRDGIDDQSYKHLFQPVINQVVDFYQPTCIVLQCGADSLGCDRLGCFNLSIRGHGECVEYVKSFNIPLLVLGGGGYTVRNVARCWTYETSLLVEEAISEELPYSEYFEYFAPDFTLHPDVSTRIENQNSRQYLDQIRQTIFENLKMLNHAPSVQIHDVPADLLTYDRTDEADAEERGPEENYSRPEAPNEFYDGDHDNDKESDVEI [H17C;G21A;K25I] | disrupting interaction |

Variants of: B1
Conditions: with ncor2_human NCOR2, Q9Y618
Remark: another data set of the same source

| Variant | effect of a mutation on the interaction |
| --- | --- |
| MAKTVAYFYDPDVGNFCYGAAHPMIPHRLALTHSLVLHYGLYKKMIVFKPYQASQHDMCRFHSEDYIDFLQRVSPTNMQGFTKSLNAFNVGDDCPVFPGLFEFCSRYTGASLQGATQLNNKICDIAINWAGGLHHAKKFEASGFCYVNDIVIGILELLKYHPRVLYIDIDIHHGDGVQEAFYLTDRVMTVSFHKYGNYFFPGTGDMYEVGAESGRYYCLNVPLRDGIDDQSYKHLFQPVINQVVDFYQPTCIVLQCGADSLGCDPMGCFNLSIRGHGECVEYVKSFNIPLLVLGGGGYTVRNVARCWTYETSLLVEEAISEELPYSEYFEYFAPDFTLHPDVSTRIENQNSRQYLDQIRQTIFENLKMLNHAPSVQIHDVPADLLTYDRTDEADAEERGPEENYSRPEAPNEFYDGDHDNDKESDVEI [H17C;G21A;K25I;R265P;L266M] | disrupting interaction |
